Assay results reported in patent US12391751B2, “Antibody against advanced glycation end products and use thereof” (Bloom Technology Corporation, priority 2018, dated 2025).

Tests used:
[1] = system: α-SMA; test: Endothelial-to-mesenchymal transition inhibition test, real-time PCR (Example 15); assay type: cell-based, human; settings: HUVEC; antibody pre-reacted with Glycer-AGEs-BSA
Procedure: (§1) 10 μL of Glycer-AGEs-BSA (10 mg/mL) prepared in Example 1, PBS, and 90 μL of SJ-5 (10 mg/mL) or a control antibody (10 mg/mL) were added to a 1.5 mL tube (Watson). Alternatively, 90 μL of a PBS solution of control BSA (10 mg/mL) was added. These solutions were left standing at room temperature for 10 minutes. Then, a supernatant was recovered by centrifugation at 14000 rpm for 15 minutes using a centrifuge (Thermo Fisher Scientific Inc.).
(§2) HUVEC was cultured in a 10 cm dish using 10 mL of a medium for HUVEC.
(§3) The cultured HUVEC was washed with 10 mL of PBS. Then, 1 mL of trypsin-EDTA was added thereto and left standing at room temperature for 3 minutes. HUVEC thus left standing was confirmed to be detached from the dish, and trypsin-EDTA was neutralized by the addition of 10 mL of a medium for HUVEC. After the neutralization, the whole amount was transferred to a 50 mL tube and centrifuged at 1500 rpm for 3 minutes using a centrifuge.
(§4) After the centrifugation, the supernatant was discarded, and precipitated cells were resuspended by the addition of 1 mL of a medium for HUVEC. A 10 μL aliquot from the resuspension was mixed with 10 μL of Trypan Blue, and 10 μL thereof was added to a counting chamber. Then, the number of live cells was counted in Auto Cell Counter EVE. The cell suspension was diluted into 2.5×10^5 cells/mL with a medium for HUVEC and inoculated at 400 μL/well to the Matrigel prepared in (1). After the inoculation, each reaction solution prepared in (2) was added at 100 μL/well, followed by culture for 8 hours in a CO2 incubator.
(§5) Each well was washed three times with 1 mL of PBS, and Cell Recovery Solution (Corning Inc.) was added at 500 μL/well.
(§6) The cells and the Matrigel matrix were scraped off using Blue Chip (Watson), recovered into a 1.5 mL tube, and transferred to the 1.5 mL tube after rinsing of each well again with 500 μL of Cell Recovery Solution. The 1.5 mL tube was mixed by inversion five times and then left standing on ice for 1 hour to confirm that the Matrigel matrix was completely degraded. After the Matrigel matrix degradation, a supernatant was discarded by centrifugation at 800 rpm at 4° C. Precipitated cells were gently suspended in 1 mL of ice-cooled PBS and centrifuged at 800 rpm at 4° C. to discard a supernatant. Precipitated cells were gently suspended again in 1 mL of ice-cooled PBS and centrifuged at 800 rpm at 4° C.
(§7) 125 μL of CellAmp Washing Buffer attached to the kit was added to the cells precipitated by centrifugation, and mixed. […]
(§8) After the addition, real-time PCR was performed with QuantStudio™ 12K Flex real-time PCR system (Thermo Fisher Scientific Inc.) to quantify gene expression levels. […]

[2] = system: CD31; test: as above; assay type: cell-based, human; settings: HUVEC; antibody pre-reacted with Glycer-AGEs-BSA
Procedure: as §1, §2, §3, §4, §5, §6, §7, §8

B1: SJ-5: mouse monoclonal antibody raised against GAL13-MSA; heavy-chain variable region SEQ ID NO 4, light-chain variable region SEQ ID NO 8 (antibody, listed as Mus musculus, V domains shown)
VH: EVMLVESGGRLVKPGGSLKLSCAASGFTFSSYGMSWVRQTPEKRLEWVATISGGGSYTYYPDSVKGRFTISRDNVKNNLYLQMSSLRSEDTALYYCARRGAYGDYGWFAYWGQGTLVTVSA
VL: DIVLTQSPATLSVTPGDSVSLSCRASQSINNNLHWYQQKSHESPRLLIKCASQSISGIPSRFSGSGSGTDFTLSINSVETEDFGMYFCQQSNSWPLTFGAGTKLELK
[1]
  suppression of α-SMA increase caused by Glycer-AGEs-BSA: suppressible
[2]
  suppression of CD31 decrease caused by Glycer-AGEs-BSA: suppressible
